The values below come from patent publication US20250340623A1 (AC IMMUNE, published 2025).

The Kd is the free concentration of one partner at which half of the binding sites on the other are occupied at equilibrium, for simple one-to-one binding. Low values mean tighter binding, high ones weaker binding. Broadly, the koff is the first-order rate constant of dissociation. High values mean a short-lived complex, low ones a long-lived complex. The kon is a measure of how fast the partners come together. A high value points to faster complex formation.

Numbering of substitutions follows the chain as printed.

Sequences and labels used below:
B1: ACI-7079-3103D9-Ab1 (antibody, V domains shown)
VH: QVSLKESGPGILQPSQTLSLTCSFSGFSLSTFGMGVGWIRQPSGKGLDWLTHIWWDDDKYYNPGLKSRLTISKDTSKNQVFLEIANVDTADTATYYCARIGDYYGTRGYFDVWGTGTTVTVSS
VL: DIVMTQSPSSLTMSLGQTVTMSCKSSQSLLNSSNQKNHLAWYQQRPGQSPKLLVYFASTRESGVPERFIGGGSGTDFTLTISNVQSEDLTDYFCQQHYSTPYTFGGGTKLEIK
notes: mouse hybridoma mAb; VH/VL only; also called 3103D9C9
B2: ACI-7079-3106C5-Ab1 (antibody, V domains shown)
VH: B1 VH with S3T, D48E, G64A, K73R, T75P, E83K, T106S
VL: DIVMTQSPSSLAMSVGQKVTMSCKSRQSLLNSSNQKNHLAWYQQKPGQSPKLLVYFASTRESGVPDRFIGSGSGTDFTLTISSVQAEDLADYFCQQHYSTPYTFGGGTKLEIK
notes: mouse hybridoma mAb; VH/VL only; also called 3106C5B7
B3: ACI-7079-3104F12-Ab2 (antibody, V domains shown)
VH: B1 VH with S3T, L12V, S30N, M34L, G64A, E83K, Y103F, T106S
VL: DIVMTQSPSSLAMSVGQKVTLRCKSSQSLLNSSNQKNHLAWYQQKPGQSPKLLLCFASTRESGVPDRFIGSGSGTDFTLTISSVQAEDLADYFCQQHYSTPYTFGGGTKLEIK
notes: mouse hybridoma mAb; VH/VL only; also called 3104F12F2H7
B4: ACI-7087-4119E10-Ab2 (antibody, V domains shown)
VH: QVQLQQSGAELVRPGASVTLSCKASGYTFSDYEMNWVKQTPVHGLEWIGAIDPETGGTAYNQKFKGKAILTSDKSSSTAYMELRSLTSEDSAVYYCTRFLLIDFDYWGQGTTLTVSS
VL: DVLMTQTPLSLPVSLGDQASISCRSSQSIVHSNGNTYLEWYLKKAGQSPKVLIYKVSNRFSGVPDRFSGSGSGTDFTLKISRVEAEDLGVYYCFQGSHVPYTFGGGTELEIK
notes: mouse hybridoma mAb; VH/VL only; also called 4119E10D12
B5: ACI-8033-21C8-Ab1 (antibody, V domains shown)
VH: QVQLQQPGAELVKPGASVKMSCKASGYTFTSYWITWVRQRPGQGLDWIGDIYPGGGVTNYNEKFKTKATLTVDTSSSTAYMHLSSLTSEDSAVYFCATAQTTFAYWGQGTLVTVSA
VL: B4 VL with S28N, S32N, K43Q, A45P, V51L, Y101R, E108K
notes: mouse hybridoma mAb; VH/VL only; also called 917.21C8E4C8
B6: ACI-7079-3103G12-Ab2 (antibody, V domains shown)
VH: DVQLQESGPGMVKPSQSLSLTCTVTGYSITSGYDWHWIRHFPGNKLEWMGYITYSGSTNYNPSLKSRISITHDTSKNHFFLKLTSVTTEDTATYYCARDTVDAWFAYWGQGTLVTVSA
VL: B4 VL with T7A, N35D, K43Q, A45P, V51L, Y101P, E108K
notes: mouse hybridoma mAb; VH/VL only; also called 3103G12D2B10
B7: ACI-7079-3101E3-Ab1 (antibody, V domains shown)
VH: QVQLKESGPGLVAPSQSLSITCTVSGFSLTRYIINWVRQPPGKGLEWLGVIWTGGGTDYNSALKSRLSISKDNSKSQVFLKMNSLQTDDTARYYCAREYGYDGAWFAYWGQGTLVTVSA
VL: B4 VL with S28T, K43Q, A45P, V51L, E108K
notes: mouse hybridoma mAb; VH/VL only; also called 3101E3C9
B8: ACI-7087-4125E6-Ab1 (antibody, V domains shown)
VH: QVQLQQPGTELVKPGASVRLSCKASGYAFTSYWMHWVKQRPGQGLEWIGNINPSNGGTNYNEKFKNKATLTVDKSSSTAYMQLSGLTSEDSAVYYCATGLHYWGQGTTLTVSS
VL: DIQMTQSPSSLSASLGERVTLTCRASQDIGNYLNWLQQEPDGTIKRLIYATSSLDSGVPKRFSGSRSGSDYSLTISSLESEDFVDYYCLQFASSPLTFGPGTKLELK
notes: mouse hybridoma mAb; VH/VL only; also called 4125E6D5
B9: ACI-7089-4415G5-Ab1 (antibody, V domains shown)
VH: QVQLQQSGAELARPGASVKVSCKASGYTFTSSGISWLKHRTGQGLEWIGDIYPRSGNTYYNEKFKDKATLTADKSSSTAYMELRSLTSEDSAVYFCASGNYWGQGTTLTVSA
VL: DIVITQDDLSNPVTSGESVSISCRSSKSLLYKDGKTYLNWFLQRPGQSPQLLIYLMSTRASGVSDRFSGSGSGTDFTLEISRVKAEDVGVYYCQQLLEYPLTFGAGTKLELK
notes: mouse hybridoma mAb; VH/VL only; also called 4415G5A11
B10: ACI-8033-6403E11-Ab2 (antibody, V domains shown)
VH: DVQLQESGPGLVKPSQSLSLTCSVTGYSITSAYYWNWIRQFPGNKLEWMGYISYDGSNNYIPSLKNRISISRDTSKNQFFLKLNSVTTEDTATYYCIRGDVNWGQGTTLTVSS
VL: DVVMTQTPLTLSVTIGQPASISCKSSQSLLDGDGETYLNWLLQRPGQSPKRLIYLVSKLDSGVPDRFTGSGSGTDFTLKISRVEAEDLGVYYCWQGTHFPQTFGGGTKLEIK
notes: mouse hybridoma mAb; VH/VL only; also called 6403E11B4
B11: ACI-8033-6402E10-Ab1 (antibody, V domains shown)
VH: B10 VH with S15V, A32G, Y54S, I61N, N84D, I97V, G99A, V101N, N102Y
VL: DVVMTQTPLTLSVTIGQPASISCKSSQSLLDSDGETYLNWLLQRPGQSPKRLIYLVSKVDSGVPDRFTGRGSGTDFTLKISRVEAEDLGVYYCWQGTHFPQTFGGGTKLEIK
notes: mouse hybridoma mAb; VH/VL only; also called 6402E10B3
B12: ACI-7089-4418C5-Ab1 (antibody, V domains shown)
VH: B10 VH with V2G, A32G, S53N, I61N, S71T, L83F, S85F, I97V, N102Y
VL: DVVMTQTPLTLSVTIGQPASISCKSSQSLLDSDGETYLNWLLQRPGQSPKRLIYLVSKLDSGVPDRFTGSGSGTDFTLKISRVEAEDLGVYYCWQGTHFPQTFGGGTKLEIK
notes: mouse hybridoma mAb; VH/VL only; also called 4418C5G1
B13: ACI-7088-4301E12-Ab2 (antibody, V domains shown)
VH: DVQLQESGPGLVKPSQSLSLTCSVTGYSITSGYYWNWIRQFPGNKLEWMGYISDDGSKNYNPSLKNRISITRDTSKNQLFMKLNSVTTEDTATYYCARGDSRLGQGTLVTVSA
VL: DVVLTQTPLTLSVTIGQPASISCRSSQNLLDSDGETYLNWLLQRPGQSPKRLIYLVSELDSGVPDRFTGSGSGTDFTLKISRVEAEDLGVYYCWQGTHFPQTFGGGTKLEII
notes: mouse hybridoma mAb; VH/VL only; also called 4301E12B9
B14: ACI-7079-2601B6-Ab1 (antibody, V domains shown)
VH: EIQLQQSGAELVRPGASVKLSCTTSGFNIKDDYIHWVKQRPEQGLEWIGWIDPENGDTDYASKFQGKATITADTSSNTAYLHLSSLTSEDAAVYFCTTRGFGYWGQGTLVTVS
VL: DIVMTQSHKFMSTSVGDRVSITCKASQDVGNVVAWYQQKPGQSPKLLIYWASSRHTGVPDRFTGSGSGTEFTLTISNVQSEDLADYFCQQYSSYPLTFGAGTKLELK
notes: mouse hybridoma mAb; VH/VL only; also called 2601B6D2; ACI-7079-26016NAbM
B15: ACI-7088-4301D5-Ab2 (antibody, V domains shown)
VH: QVQLQQSGPELVRPGASVKISCKASGYRFTSYYIHWVKQRPGQGLEWIGWIYPGSDNTKHNDKFKGKATLTADTSSSTAYMQLSSLTSEDSAVYFCARDYDVGFGYWGQGTLVTVSS
VL: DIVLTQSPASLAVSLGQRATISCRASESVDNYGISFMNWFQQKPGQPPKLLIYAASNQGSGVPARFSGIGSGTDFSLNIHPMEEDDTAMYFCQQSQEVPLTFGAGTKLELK
notes: mouse hybridoma mAb; VH/VL only; also called 4301D5B10
B16: ACI-8033-22E5-Ab1 (antibody, V domains shown)
VH: EVQLVESGGDLVKPGGSLKLSCAASGFTFSSYGMSWVRQTPDKRLEWVATISNGGSYTYYPDSVKGRFTISRDNAKNTLYLQMSSLKSEDTAMYYCARQLRRDGWYFDVWGTGTTVTVSS
VL: EIVLTQSPALMAASPGEKVTITCSVSSSISSSKLHWYQQKSETSPKLWIYGTSNLASGVPVRFSGSGSGTSYSLTISSMEAEDAATYYCQQWSSYPLTFGAGTKLELK
notes: mouse hybridoma mAb; VH/VL only; also called 917.22E5C5F7
B17: ACI-7079-3108C10-Ab2 (antibody, V domains shown)
VH: ELQLVESGGGLVRPGGSLKLSCATSGFTFRNYAMSWVRQTPAKRLEWVATISDGGTYTFYSDNVKGRFTISRDNVKNTLYLQMSHLKSEDTAMYYCSRAGSGHWGQGTTLTVSS
VL: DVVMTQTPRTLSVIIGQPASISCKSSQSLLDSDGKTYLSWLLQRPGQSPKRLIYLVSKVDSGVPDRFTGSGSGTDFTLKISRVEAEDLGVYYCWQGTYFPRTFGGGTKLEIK
notes: mouse hybridoma mAb; VH/VL only; also called 3108C10G6

One experiment has as its target monomeric alpha-synuclein (UniProt P37840 1-140). Put plainly: SPR, captured mAb. Here is the method:
(§1) Non-covalent immobilization of alpha-synuclein antibodies was performed using a target immobilization method of 2000 response units (RU). Antibodies were diluted in 10 mM sodium acetate pH 5.5 (GE Healthcare, BR-1003-52) to a final concentration of 5 μg/mL.
(§2) Binding affinity of alpha-synuclein antibodies to monomeric or fibrillar alpha-synuclein species was performed using a single-cycle kinetics method. The instrument was primed with 1×HBS-P+ buffer (10× stock from GE Healthcare, BR-1003-52 diluted in Milli-Q water). Injections of monomeric alpha-synuclein (aSyn) (Boston Biochem, SP-485), increasing in concentration from 0.62-50 nM prepared from serial 2-fold dilutions, were performed with contact times of 300 sec/injection at a flow rate of 30 μL/min. A dissociation phase of 900 sec followed the final 50 nM injection. Regeneration of the sensor to the goat anti-mouse antibody layer was achieved using 3 regenerations of 10 mM Glycine pH 1.7. […] Regeneration of the sensor to the goat anti-mouse antibody layer was achieved using 3 regenerations of 10 mM Glycine pH 1.7. Results obtained from single-cycle kinetics were evaluated by Biacore T200 evaluation software with 1:1 binding homogenous Langmuir model (with a global Rmax) with Cycle 5 as a blank subtraction. The following kinetic parameters were obtained: on-rate (ka), off-rate (kd), affinity constant (KD, ratio of kd by ka), maximum response (Rmax), and goodness of fit (Chi2).
(§3) Non-covalent capture of the alpha-synuclein antibodies was performed in three separate runs.
(In general: SPR reads the build-up and loss of mass on a sensor chip optically.)
As to B1, the Kd was 0.73 nM, the koff came out at 0.000437 s⁻¹ and the kon is 598000 M⁻¹ s⁻¹.

In turn, B2 gave a Kd of 4.1 nM, a koff of 0.00325 s⁻¹ and a kon of 792000 M⁻¹ s⁻¹.

On to B3, for which the Kd stood at 0.51 nM, the koff stood at 0.000452 s⁻¹ and the kon amounted to 892000 M⁻¹ s⁻¹.

As for B4, binding was put at a Kd of 1040 nM, the koff worked out at 0.0188 s⁻¹ and the kon amounted to 18000 M⁻¹ s⁻¹.

In the case of B5, the Kd is 1.6 nM, the koff came to 0.000482 s⁻¹ and the kon worked out at 301000 M⁻¹ s⁻¹.

The molecule B6 displayed a Kd of 2.4 nM, a koff of 0.0014 s⁻¹ and a kon of 580000 M⁻¹ s⁻¹.

In the case of B7, the Kd was determined as 300 nM, the koff amounted to 0.0569 s⁻¹ and the kon came out at 190000 M⁻¹ s⁻¹.

In turn, B8 returned a Kd of 442 nM, a koff of 0.0261 s⁻¹ and a kon of 59100 M⁻¹ s⁻¹.

B9 had a Kd of 2.4 nM, a koff of 0.000141 s⁻¹ and a kon of 60000 M⁻¹ s⁻¹.

The molecule B10 came in with a Kd of 3.9 nM, a koff of 0.000293 s⁻¹ and a kon of 75200 M⁻¹ s⁻¹.

In the case of B11, binding was characterised by a dissociation constant (Kd) of 28.3 nM, the koff amounted to 0.00058 s⁻¹ and the kon was determined as 20500 M⁻¹ s⁻¹.

In turn, B12 came in with a Kd of 3.1 nM, a koff of 0.000141 s⁻¹ and a kon of 45000 M⁻¹ s⁻¹.

In the case of B13, binding was characterised by a dissociation constant (Kd) of 6 nM, the koff turned out to be 0.000118 s⁻¹ and the kon was 19800 M⁻¹ s⁻¹.

Molecule B14 returned a Kd of 82.1 nM, a koff of 0.0238 s⁻¹ and a kon of 290000 M⁻¹ s⁻¹.

Turning to B15, the Kd is 620 nM, the koff was found to be 0.0353 s⁻¹ and the kon amounted to 56900 M⁻¹ s⁻¹.

In a further experiment the target is alpha-synuclein fibrils (UniProt P37840 1-140). Put plainly: SPR, captured mAb. Here is the method: as §1, §2, §3
Molecule B1 came in with a Kd of 9.2 nM, a koff of 0.000413 s⁻¹ and a kon of 44800 M⁻¹ s⁻¹.

For B2, the Kd worked out at 9.49 nM, the koff turned out to be 0.000237 s⁻¹ and the kon amounted to 25000 M⁻¹ s⁻¹.

B3 showed a Kd of 3.73 nM, a koff of 0.000268 s⁻¹ and a kon of 71800 M⁻¹ s⁻¹.

The molecule B16 registered a Kd of 1.8 nM, a koff of 3.27e-05 s⁻¹ and a kon of 18000 M⁻¹ s⁻¹.

B4 showed a Kd of 16.2 nM, a koff of 0.00453 s⁻¹ and a kon of 280000 M⁻¹ s⁻¹.

Consider B5, for which binding was put at a Kd of 17.7 nM, the koff stood at 0.000156 s⁻¹ and the kon was found to be 8810 M⁻¹ s⁻¹.

On to B6, for which the Kd stood at 22.5 nM, the koff came to 0.000563 s⁻¹ and the on-rate constant (kon) was determined as 25000 M⁻¹ s⁻¹.

As to B7, binding was put at a Kd of 13.7 nM, the koff worked out at 0.000129 s⁻¹ and the kon was determined as 9380 M⁻¹ s⁻¹.

B8 registered a Kd of 50.7 nM, a koff of 0.000567 s⁻¹ and a kon of 11200 M⁻¹ s⁻¹.

B9 displayed a Kd of 1.3 nM, a koff of 0.00031 s⁻¹ and a kon of 242000 M⁻¹ s⁻¹.

B10 showed a dissociation constant (Kd) of 44.6 nM, a koff of 0.000273 s⁻¹ and a kon of 6110 M⁻¹ s⁻¹.

Take B11: the Kd turned out to be 37.4 nM, the koff was 0.000152 s⁻¹ and the kon was 4060 M⁻¹ s⁻¹.

B12 had a Kd of 0.05 nM, a koff of 9.4e-06 s⁻¹ and an on-rate (kon) of 207000 M⁻¹ s⁻¹.

Molecule B13 had a Kd of 39 nM, a koff of 0.000166 s⁻¹ and a kon of 4250 M⁻¹ s⁻¹.

Regarding B14, the Kd was 22 nM, the koff was 0.000382 s⁻¹ and the kon is 17400 M⁻¹ s⁻¹.

In the case of B15, the Kd was 35.8 nM, the koff turned out to be 0.000385 s⁻¹ and the kon was determined as 10800 M⁻¹ s⁻¹.

In turn, B17 registered a Kd of 6.77 nM, a koff of 6.66e-05 s⁻¹ and a kon of 9840 M⁻¹ s⁻¹.
